Laboratory results as given in article doi:10.1101/2023.06.06.543836.

Molecular target: CXCL12 (chemokine (C-X-C motif) ligand 12) (UniProt P48061)
Assay: NMR titration

CXCL12 (chemokine (C-X-C motif) ligand 12), sequence (P48061 22-89): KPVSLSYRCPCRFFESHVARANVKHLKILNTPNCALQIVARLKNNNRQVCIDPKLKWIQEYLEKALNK

Kd: 200 nM
Substance: Ac-pep (synthetic peptide corresponding to the HMGB1 acidic IDR) (from UniProt P63158 186-214)
